{"source": "IntAct's records for PubMed 9422760", "parents": {"B1": {"name": "Tyrosine-protein phosphatase non-receptor type 18 (Homo sapiens), Q99952 (parent)", "chain": "MSRSLDSARSFLERLEARGGREGAVLAGEFSDIQACSAAWKADGVCSTVAGSRPENVRKNRYKDVLPYDQTRVILSLLQEEGHSDYINGNFIRGVDGSLAYIATQGPLPHTLLDFWRLVWEFGVKVILMACREIENGRKRCERYWAQEQEPLQTGLFCITLIKEKWLNEDIMLRTLKVTFQKESRSVYQLQYMSWPDRGVPSSPDHMLAMVEEARRLQGSGPEPLCVHCSAGCGRTGVLCTVDYVRQLLLTQMIPPDFSLFDVVLKMRKQRPAAVQTEEQYRFLYHTVAQMFCSTLQNASPHYQNIKENCAPLYDDALFLRTPQALLAIPRPPGGVLRSISVPGSPGHAMADTYAVVQKRGAPAGAGSGTQTGTGTGTGARSAEEAPLYSKVTPRAQRPGAHAEDARGTLPGRVPADQSPAGSGAYEDVAGGAQTGGLGFNLRIGRPKGPRDPPAEWTRV"}, "B2": {"name": "Proline-serine-threonine phosphatase-interacting protein 1 (Homo sapiens), O43586 (parent)", "chain": "MMPQLQFKDAFWCRDFTAHTGYEVLLQRLLDGRKMCKDMEELLRQRAQAEERYGKELVQIARKAGGQTEINSLRASFDSLKQQMENVGSSHIQLALTLREELRSLEEFRERQKEQRKKYEAVMDRVQKSKLSLYKKAMESKKTYEQKCRDADDAEQAFERISANGHQKQVEKSQNKARQCKDSATEAERVYRQSIAQLEKVRAEWEQEHRTTCEAFQLQEFDRLTILRNALWVHSNQLSMQCVKDDELYEEVRLTLEGCSIDADIDSFIQAKSTGTEPPAPVPYQNYYDREVTPLTSSPGIQPSCGMIKRFSGLLHGSPKTTSLAASAASTETLTPTPERNEGVYTAIAVQEIQGNPASPAQEYRALYDYTAQNPDELDLSAGDILEVILEGEDGWWTVERNGQRGFVPGSYLEKL", "partner": "B1 chain"}}}
{"variants_of": "B1", "details": "with ppip1_human PSTPIP1, O43586"}
{"variant": "P447A", "effect of a mutation on the interaction": "disrupting interaction"}
{"variants_of": "B1", "details": "with ppip1_human PSTPIP1, O43586", "remark": "another data set of the same source"}
{"variant": "C229S", "effect of a mutation on the interaction": "increasing interaction"}
{"variants_of": "B2", "details": "with ptn18_human PTPN18, Q99952"}
{"variant": "W232A", "effect of a mutation on the interaction": "disrupting interaction"}
